Results taken from patent US20240100180A1.

Target: CLDN18.2 on lipoparticles
Test: ELISA on CLDN18.2-lipoparticles

Substance: IMAB362 (antibody)
- EC50: 0.0515 µg/mL
